Test results from article PMC5510646 (The Biochemical journal, 2017).
Numbering of substitutions follows the chain as printed. Numbers in names are those of the source.

T1: Grem2 K147A/K148A/K151A/K153A (UniProt O88273 22-168, K147A | K148A | K151A | K153A)
T1 sequence: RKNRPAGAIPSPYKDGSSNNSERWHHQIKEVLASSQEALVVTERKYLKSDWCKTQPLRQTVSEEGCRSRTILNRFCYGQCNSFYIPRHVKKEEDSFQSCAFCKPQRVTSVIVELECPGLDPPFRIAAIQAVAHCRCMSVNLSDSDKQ

T2: Grem2 K66A/K69A/K147A/K148A (UniProt O88273 22-168, K66A | K69A | K147A | K148A)
T2 sequence: T1 sequence with K45A, K48A, A130K, A132K

T3: Gremlin-2 wild type (UniProt O88273 22-168)
T3 sequence: T1 sequence with A126K, A127K, A130K, A132K

T4: Grem2 K111A/K112A/K151A/K153A (UniProt O88273 22-168, K111A | K112A | K151A | K153A)
T4 sequence: T1 sequence with K90A, K91A, A126K, A127K

B1: Grem2 K66A/K69A (natural protein)
chain: T1 sequence with K45A, K48A, A126K, A127K, A130K, A132K
B2: Grem2 K111A/K112A (natural protein)
chain: T1 sequence with K90A, K91A, A126K, A127K, A130K, A132K
B3: Grem2 K147A/K148A (natural protein)
chain: T1 sequence with A130K, A132K
B4: Recombinant mature BMP2 (ligand, UniProt P12643 283-396, looked up)
chain: QAKHKQRKRLKSSCKRHPLYVDFSDVGWNDWIVAPPGYHAFYCHGECPFPLADHLNSTNHAIVQTLVNSVNSKIPKACCVPTELSAISMLYLDENEKVVLKNYQDMVVEGCGCR
B5: Grem2 K151A/K153A (natural protein)
chain: T1 sequence with A126K, A127K

Assays:
SEC = target: the molecule itself; test: SEC
[1] = target: T1, Grem2 K147A/K148A/K151A/K153A; test: SPR
[2] = target: T2, Grem2 K66A/K69A/K147A/K148A; test: SPR
Gremlin-2 wild type = target: T3, Gremlin-2 wild type; test: SPR
Grem2 K111A/K112A = target: B2; test: SPR
[3] = target: T4, Grem2 K111A/K112A/K151A/K153A; test: SPR
Grem2 K66A/K69A = target: B1; test: SPR
Grem2 K151A/K153A = target: B5; test: SPR
Grem2 K147A/K148A = target: B3; test: SPR

Binder: B1
stoichiometry N (SEC): 2

Binder: B2
stoichiometry N (SEC): 2

Binder: B3
stoichiometry N (SEC): 2

Binder: B4
Kd [1]: 4.4 nM | Kd [2]: 5.66 nM | Kd (Gremlin-2 wild type): 1.42 nM | Kd (Grem2 K111A/K112A): 1.77 nM | Kd [3]: 2.11 nM | Kd (Grem2 K66A/K69A): 2.4 nM | Kd (Grem2 K151A/K153A): 1.3 nM | Kd (Grem2 K147A/K148A): 1.98 nM

Binder: B5
stoichiometry N (SEC): 2
